Biological target: T1, human CD19 (antigen) (human, UniProt P15391 20-291, limits assumed)
T1 sequence (looked up): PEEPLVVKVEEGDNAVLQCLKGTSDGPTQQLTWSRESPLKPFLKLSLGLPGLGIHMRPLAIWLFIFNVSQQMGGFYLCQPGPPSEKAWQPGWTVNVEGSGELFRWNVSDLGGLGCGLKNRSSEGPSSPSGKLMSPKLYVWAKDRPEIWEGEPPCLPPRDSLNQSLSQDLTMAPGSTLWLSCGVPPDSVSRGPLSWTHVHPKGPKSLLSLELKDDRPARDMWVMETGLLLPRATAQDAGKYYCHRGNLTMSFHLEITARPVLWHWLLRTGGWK
Assay: affinity determination, method not stated; humanized monoclonal antibody

Kd: 28.4 nM
B1: humanized anti-CD19 antibody (H-CD19) (antibody, V domains shown)
VH: QVTLRESGPALVKPTQTLTLTCTFSGVSLPDYGVSWIRQPPGKALEWLAVIWGSETTYYNSALKSRLTISKDTSKNQVVLTMTNMDPVDTATYYCAKHYYYGGSYAMDYWGQGTTVTVSS
VL: EIVLTQSPATLSLSPGERATLSCRASQDISKYLNWYQQKPGQAPRLLIYHTSRLHSGIPDRFSGSGSGTDFTLTISRLEPEDIAVYYCQQGNTLPYTFGQGTKLEI
notes: also called humanized monoclonal antibody

From patent publication US20230203178A1 (SICHUAN KELUN BIOTECH BIOPHARMACEUTICAL, published 2023)
